The assay addresses yeast APC (anaphase promoting complex of Schizosaccharomyces pombe). The assay can be described thus: cell-based or functional assay.

“HOBBIT (HBT) protein of Arabidopsis thaliana (from UniProt Q8LGU6 1-744)”: the growth (optical density) of S. pombe nuc2ts at restrictive temperature, HBT cDNA against empty vector control worked out at 4 fold.

For the origin of these results see US20040172686A1.
